Experimental data taken from the supplement of paper PMC9732359.
± gives the uncertainty stated by the source.

Test: protein stability index of a GFP-peptide fusion (yeast GPS) (PSI 1-4); higher = more stable; sorted into four equal gates, so the index is relative within each strain
Method in brief: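 Each library plasmid carries Cherry plus GFP with a tiled 17-residue yeast protein peptide fused downstream, and the pooled library was carried in yeast. Mid-log cultures in leucine-free medium were sorted into four equal gates by GFP/Cherry ratio. Reads from Illumina sequencing of PCR-amplified plasmids from each gate were assigned to strains by barcodes. Per peptide, the protein stability index was computed as the summed products of gate read frequency and gate number.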

Row | Sequence | protein stability index (doa10∆) | protein stability index (pdr5∆) | protein stability index (san1∆) | protein stability index (ubr1∆)
1 | PASKHDKEVVYFDEWTI [RPC34] | 3.27 ± 0.081 | 3.43 ± 0.065 | 3.04 ± 0.056 | 3.12 ± 0.082
2 | SIDPPGCVDIDDALHAK [DIS3] | 3.12 ± 0.085 | 3.19 ± 0.072 | 3.25 ± 0.071 | 3.31 ± 0.06
3 | DDLALPYQHPPNIFPNL [ITC1] | 3.37 ± 0.097 | 3.43 ± 0.12 | 3.43 ± 0.074 | 3.21 ± 0.046
4 | MSSTNGNAPATPSSDQN [SOH1] | 3.17 ± 0.09 | 2.75 ± 0.1 | 3.2 ± 0.058 | 3.11 ± 0.1
5 | LSFTPTTVIGIRGSDQA [RPN2] | 1.65 ± 0.089 | 1.61 ± 0.073 | 1.78 ± 0.15 | 1.59 ± 0.062
6 | FHILLKLILEWVAPQES [ECM29] | – | 2.08 ± 0.27 | 1.53 ± 0.17 | 1.77 ± 0.14
7 | LFRIFSMSEEFKYVSVR [BRR2] | 2.39 ± 0.14 | 3.18 ± 0.15 | 2.99 ± 0.18 | 3.29 ± 0.12
8 | YSDIGGLESQIQEIKES [RPT2] | 1.8 ± 0.095 | 1.97 ± 0.08 | 1.88 ± 0.096 | 2.52 ± 0.091
9 | NDPSAEVRRAAMLNLIN [YCG1] | – | 3.42 ± 0.21 | 2.72 ± 0.26 | –
10 | HFTEIKLNKVDKNELQQ [SIR3] | 2.86 ± 0.056 | 2.88 ± 0.056 | 3 ± 0.04 | 3.07 ± 0.049
11 | SGKETASAPLCSPKLPV [DLS1] | 2.89 ± 0.049 | 3.13 ± 0.05 | 3.15 ± 0.039 | 3.14 ± 0.034
12 | SDNNSRIMSRNFYLKRF [SWI1] | 2.73 ± 0.066 | 2.67 ± 0.079 | 2.95 ± 0.099 | 3.09 ± 0.063
13 | SFGKIYVTKPMVNESDG [RPB2] | 3.12 ± 0.19 | 3.18 ± 0.14 | 3.01 ± 0.2 | 3.26 ± 0.24
14 | TAAEKKERLTKEAAAVA [RPL8A] | 3.25 ± 0.12 | 2.79 ± 0.16 | 3.13 ± 0.096 | 2.89 ± 0.15
15 | TFGKKADVTSNIDSSAQ [YOR098C/NUP1] | 2.09 ± 0.058 | 2.23 ± 0.045 | 1.91 ± 0.11 | 2.57 ± 0.038
16 | DVVEYLDKVINKELPIN [RPN8] | 2.82 ± 0.22 | 3 ± 0.2 | – | 3.12 ± 0.19
17 | KLPKVYKRSIVRNYKPL [SWI1] | 2.8 ± 0.086 | 2.99 ± 0.089 | 2.89 ± 0.074 | 2.96 ± 0.12
18 | EVNREEAIGFIRGSNKF [SMC3] | 2.84 ± 0.21 | 2.77 ± 0.11 | 2.88 ± 0.14 | 2.57 ± 0.09
19 | ATAAESDVAKQLAALGY [RPL16A] | 2.98 ± 0.042 | 2.91 ± 0.056 | 3.18 ± 0.045 | 3.2 ± 0.048
20 | TQHEEEEEQDTGESEES [IRR1] | – | 3.29 ± 0.1 | 3.26 ± 0.092 | 3.39 ± 0.15
21 | EYALEAVKRGTCAVGVK [PRE6] | 1.93 ± 0.08 | 2.53 ± 0.094 | 2.21 ± 0.13 | 2.92 ± 0.084
22 | TRGGASALIENNLFRII [YJL039C/NUP192] | 2.48 ± 0.048 | 2.41 ± 0.052 | 2.41 ± 0.052 | 2.7 ± 0.041
23 | DDDQIESLKKSPIFEVL [ARP9] | 3.16 ± 0.064 | 3.15 ± 0.046 | 3.06 ± 0.033 | 3.2 ± 0.04
24 | SLILKESGSTPISISNA [YAR002W/NUP60] | 1.2 ± 0.085 | 1.62 ± 0.1 | 1.45 ± 0.11 | 1.23 ± 0.1
25 | LLRLASKSTSMKLSMPP [POP1] | 2.75 ± 0.064 | 2.76 ± 0.065 | 2.69 ± 0.059 | 2.81 ± 0.049
26 | NTKEEFAAAPNDTSSGT [SNF5] | 2.97 ± 0.067 | 3.06 ± 0.062 | 2.96 ± 0.055 | 2.9 ± 0.062

Row | Sequence | protein stability index (doa10∆) | protein stability index (pdr5∆) | protein stability index (san1∆) | protein stability index (ubr1∆)
27 | ETNLQTFLPPLLLKLAS [ECM29] | 1.65 ± 0.038 | 1.85 ± 0.043 | 1.62 ± 0.063 | 2.11 ± 0.034
28 | PSKKRRRDFGAPANKRP [SMD1] | 2.57 ± 0.19 | 3.02 ± 0.1 | 3.16 ± 0.12 | 3.04 ± 0.09
29 | AKGFYHTPMVNFESISA [SRB8] | 2.16 ± 0.06 | 1.84 ± 0.05 | 1.52 ± 0.11 | 1.93 ± 0.05
30 | SFGSKPTGKEEGDGAKA [YJL041W/NSP1] | 3.59 ± 0.12 | 3.31 ± 0.065 | 3.48 ± 0.11 | 3.21 ± 0.083
31 | LANEERLSNEMHALKNR [RGR1] | 3.32 ± 0.12 | 3.42 ± 0.07 | 3.4 ± 0.059 | 3.66 ± 0.13
32 | MSTFIFPGDSFPVDPTT [RRP40] | 2.17 ± 0.11 | 2.06 ± 0.092 | 2.35 ± 0.068 | 2.35 ± 0.074
33 | IKTRDACPLDNQPWQLA [HRT1] | 3.02 ± 0.085 | 2.66 ± 0.063 | 2.27 ± 0.073 | 3.12 ± 0.049
34 | LNATKISPSAPSKDSFT [YAR002W/NUP60] | 2.8 ± 0.068 | 3 ± 0.068 | 2.94 ± 0.052 | 3 ± 0.043
35 | TANTGTIGKRRTTTNTT [TAF14] | 3.18 ± 0.06 | 3.29 ± 0.046 | 3.21 ± 0.045 | 3.19 ± 0.062
36 | GIDPQDLKKLNLNVYIQ [CDC53] | 1.68 ± 0.14 | 1.7 ± 0.12 | 1.42 ± 0.1 | 1.19 ± 0.083
37 | MINDENYIINDIKKNNK [SRB8] | 3.15 ± 0.078 | 2.97 ± 0.095 | 3.42 ± 0.12 | 3.21 ± 0.13
38 | LTGEWSTKFDYPPMPFD [FAS1] | 2.85 ± 0.056 | 2.96 ± 0.062 | 2.85 ± 0.048 | 2.94 ± 0.037
39 | PSDMVIPDHLAELIPEL [SNF12] | 3.09 ± 0.08 | 3 ± 0.069 | 2.88 ± 0.11 | 2.79 ± 0.042
40 | ATDLAGPANNPNEFMQF [PRP8] | 3.21 ± 0.063 | 3.35 ± 0.059 | 3.23 ± 0.033 | 3.4 ± 0.05
41 | MKVEELIIDGFKSYATR [SMC2] | 3.45 ± 0.19 | 3.21 ± 0.08 | 3.11 ± 0.063 | 3.22 ± 0.096
42 | TSIEKSSEILSYLSNSL [YML103C/NUP188] | 2.21 ± 0.072 | 2.57 ± 0.076 | 1.49 ± 0.1 | 2.14 ± 0.046
43 | TTALLKDEEIEKLLQQD [MED8] | 3.29 ± 0.13 | 3.13 ± 0.13 | 3.05 ± 0.23 | 3.59 ± 0.14
44 | MEKESVYNLALKCAERQ [NUT1] | – | 2.1 ± 0.26 | 2.91 ± 0.21 | –
45 | SELPDIYSRDIGAELKR [SNF2] | – | 3.26 ± 0.13 | 3.38 ± 0.08 | 3.41 ± 0.18
46 | KDNECSSFEENNDLESV [RRI2] | 3.13 ± 0.16 | 3.12 ± 0.16 | 3.1 ± 0.17 | 3.34 ± 0.17
47 | PLIWQLLQSSIINKLIH [POP3] | 2 ± 0.059 | 2.38 ± 0.062 | 2.01 ± 0.096 | 1.84 ± 0.028
48 | DDHNGEVWSVSWNLTGT [YGL100W/SEH1] | 2.73 ± 0.069 | 3.04 ± 0.073 | 2.64 ± 0.096 | 2.73 ± 0.085
49 | NVLKAPFIKSESKPFSS [SIR4] | 2.65 ± 0.068 | 2.81 ± 0.088 | 2.6 ± 0.064 | 3.03 ± 0.059
50 | MSQSTASLVPEGNQGSL [MED8] | 3.16 ± 0.12 | 2.97 ± 0.1 | 2.62 ± 0.096 | 2.76 ± 0.13
51 | LLRQKIEQCKHPLHELI [ISW2] | 1.37 ± 0.088 | 1.49 ± 0.081 | 1.45 ± 0.22 | 1.48 ± 0.12
52 | KLDIISDPESERPAIEF [RPN14] | 2.94 ± 0.045 | 3.05 ± 0.05 | 3.03 ± 0.04 | 3.18 ± 0.039
